In PMC7807878, “Development of an engineered peptide antagonist against periostin to overcome doxorubicin resistance in breast cancer” (BMC Cancer, 2021):

Target: T1, recombinant PN (rPN) (UniProt Q15063 22-836)
T1 construct: periostin (PN), recombinant, bought; also called periostin; source: bought: BioVendor (RD172045025)
T1 sequence (looked up): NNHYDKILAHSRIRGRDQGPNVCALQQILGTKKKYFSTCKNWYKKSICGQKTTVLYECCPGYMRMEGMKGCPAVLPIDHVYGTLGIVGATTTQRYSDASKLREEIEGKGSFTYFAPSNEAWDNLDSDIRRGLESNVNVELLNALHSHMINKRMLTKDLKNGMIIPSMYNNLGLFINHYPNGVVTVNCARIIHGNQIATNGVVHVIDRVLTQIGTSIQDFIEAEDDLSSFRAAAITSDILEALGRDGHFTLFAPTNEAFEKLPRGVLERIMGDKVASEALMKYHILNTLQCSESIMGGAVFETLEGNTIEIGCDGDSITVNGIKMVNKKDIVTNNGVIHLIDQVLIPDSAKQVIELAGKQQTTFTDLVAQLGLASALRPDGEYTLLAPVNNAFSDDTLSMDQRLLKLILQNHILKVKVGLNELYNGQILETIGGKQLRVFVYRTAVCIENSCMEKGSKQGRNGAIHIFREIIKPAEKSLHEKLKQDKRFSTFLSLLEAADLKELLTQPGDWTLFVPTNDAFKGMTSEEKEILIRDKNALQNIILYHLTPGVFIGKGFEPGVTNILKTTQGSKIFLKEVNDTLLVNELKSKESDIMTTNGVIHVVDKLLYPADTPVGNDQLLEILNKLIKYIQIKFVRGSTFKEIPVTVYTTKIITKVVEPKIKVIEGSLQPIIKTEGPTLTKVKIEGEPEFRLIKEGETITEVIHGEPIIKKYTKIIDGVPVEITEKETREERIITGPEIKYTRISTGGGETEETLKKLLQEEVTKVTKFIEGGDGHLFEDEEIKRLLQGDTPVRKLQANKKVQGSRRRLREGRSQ
Test: ITC; MicroCal PEAQ-ITC; 700 nM rPN (or BSA) and 100 nM plain anti-PN peptide in 50 mM Tris, 150 mM NaCl, pH 7.5, in syringe and cell compartments
Settings: both partners purified

B1: plain anti-PN peptide (peptide)
peptide: TFATHGKHWAAP
notes: The methods mention C-terminal amidation after describing the FITC-labelled form; it is not clear whether the plain peptide is amidated too; also called candidate anti-PN peptide; source: synthetic peptide (ordered from Syn Peptide company, Shanghai)
Kd: 1 pM
